From patent EP0799891A1 come the findings set out here.

Assay [1] concerns the target human Fas antigen on human lymphocyte cell line HPB-ALL (human) (UniProt P25445). The assay can be described thus: cell-based or functional assay.
Assay [2] addresses fusion protein consisting of the extracellular region of the human Fas antigen and the extracellular region of the mouse interleukin 3 receptor (encoded by phFas-AIC2) (human; mouse) (UniProt P25445). Put plainly: ELISA; plate coated with COS-1 supernatant holding the human Fas ECD-mouse IL-3 receptor ECD fusion; detection with peroxidase-labelled rat anti-mouse IgM; PBS blank 0.104. On the technique in general: In an ELISA, binding on a coated surface is turned into a signal by an enzyme label.

“CH11 H chain alone, COS-1 culture supernatant of cells transfected with pHEX126”: in assay [1], the OD590 - OD620 (MTT assay, viable HPB-ALL cells) (OD590 - OD620) was 0.876. For the same substance, the OD405 - OD492 (OD405 - OD492) in assay [2] amounted to 0.109.
For the substance “recombinant CH11 H chain + L chain + J chain product in COS-1 culture supernatant [F] (pHEX126, pLEX004 and pJEX004) (antibody)”, in assay [1], the ED50 was 0.0229 µg/mL and the OD590 - OD620 (MTT assay, viable HPB-ALL cells) (OD590 - OD620) worked out at 0.242. In assay [2], this substance yielded an OD405 - OD492 (OD405 - OD492) of 0.202.
As to “CH11 L chain alone, COS-1 culture supernatant of cells transfected with pLEX004”, the OD590 - OD620 (MTT assay, viable HPB-ALL cells) (OD590 - OD620) in assay [1] stood at 0.887. This substance also displayed an OD405 - OD492 (OD405 - OD492) in assay [2] of 0.135.
For the substance “CH11 J chain alone, COS-1 culture supernatant of cells transfected with pJEX004”, the OD590 - OD620 (MTT assay, viable HPB-ALL cells) (OD590 - OD620) in assay [1] amounted to 0.883. Moreover, the OD405 - OD492 (OD405 - OD492) in assay [2] is 0.107.
In the case of “recombinant CH11 H chain + L chain product in COS-1 culture supernatant [E] (pHEX126 and pLEX004), without J chain (antibody)”, in assay [1], the ED50 worked out at 0.0045 µg/mL; the OD590 - OD620 (MTT assay, viable HPB-ALL cells) (OD590 - OD620) came out at 0.176; the activity (cytotoxicity, ED50 test) relative to CH11 and supernatant [F] worked out at 5 fold. In addition, the OD405 - OD492 (OD405 - OD492) in assay [2] is 0.33.
The substance “mouse anti-human Fas monoclonal antibody CH11 (IgM), purified from hybridoma culture supernatant” came in with an ED50 in assay [1] of 0.0212 µg/mL. In assay [2], this substance registered an OD405 - OD492 (OD405 - OD492) of 0.445.
